Results published in FireProtDB (doi:10.1021/bi952198j).
Several values for one entry are separate records, joined by “and”; a condition that tells them apart may be missing. Equal entries are not always repeated.

Conditions: Aspergillus oryzae (strain ATCC 42149 / RIB 40), Thermal, DSC, reversible: yes, whole UniProt chain shown

B1: Guanyl-specific ribonuclease T1 wild type, P00651 (protein)
chain: MMYSKLLTLTTLLLPTALALPSLVERACDYTCGSNCYSSSDVSTAQAAGYQLHEDGETVGSNSYPHKYNNYEGFDFSVSSPYYEWPILSSGDVYSGGSPGADRVVFNENNQLAGVITHTGASGNNFVECT
- Tm (pH 2, glycine 50 mM): 34.9 °C
- heat capacity change of unfolding (pH 2, glycine 50 mM): 1.33 kcal/mol/K
- unfolding enthalpy (calorimetric) (pH 2, glycine 50 mM): 62.1 kcal/mol
- unfolding enthalpy (van 't Hoff) (pH 2, glycine 50 mM): 78.9 kcal/mol
- Tm (pH 2.4, glycine 50 mM): 41.4 °C
- heat capacity change of unfolding (pH 2.4, glycine 50 mM): 0.53 kcal/mol/K
- unfolding enthalpy (calorimetric) (pH 2.4, glycine 50 mM): 67.5 kcal/mol
- unfolding enthalpy (van 't Hoff) (pH 2.4, glycine 50 mM): 87.3 kcal/mol
- Tm (pH 2.5, glycine 50 mM): 45.8 °C
- heat capacity change of unfolding (pH 2.5, glycine 50 mM): 0.7 kcal/mol/K
- unfolding enthalpy (calorimetric) (pH 2.5, glycine 50 mM): 82.5 kcal/mol
- unfolding enthalpy (van 't Hoff) (pH 2.5, glycine 50 mM): 90.4 kcal/mol
- Tm (pH 2.75, glycine 50 mM): 48.5 °C
- heat capacity change of unfolding (pH 2.75, glycine 50 mM): 0.04 kcal/mol/K
- unfolding enthalpy (calorimetric) (pH 2.75, glycine 50 mM): 83.8 kcal/mol
- unfolding enthalpy (van 't Hoff) (pH 2.75, glycine 50 mM): 95.4 kcal/mol
- Tm (pH 2.8, Citric acid 50 mM): 48 °C
- heat capacity change of unfolding (pH 2.8, Citric acid 50 mM): 0.94 kcal/mol/K
- unfolding enthalpy (calorimetric) (pH 2.8, Citric acid 50 mM): 76.3 kcal/mol
- unfolding enthalpy (van 't Hoff) (pH 2.8, Citric acid 50 mM): 93.4 kcal/mol
- Tm (pH 3, Citric acid 50 mM): 50.5 °C
- heat capacity change of unfolding (pH 3, Citric acid 50 mM): 0.96 kcal/mol/K
- unfolding enthalpy (calorimetric) (pH 3, Citric acid 50 mM): 86.9 kcal/mol
- unfolding enthalpy (van 't Hoff) (pH 3, Citric acid 50 mM): 101 kcal/mol
- Tm (pH 3.5, Citric acid 50 mM): 56.5 °C
- heat capacity change of unfolding (pH 3.5, Citric acid 50 mM): 1.08 kcal/mol/K
- unfolding enthalpy (calorimetric) (pH 3.5, Citric acid 50 mM): 94.8 kcal/mol
- unfolding enthalpy (van 't Hoff) (pH 3.5, Citric acid 50 mM): 104 kcal/mol
- Tm (pH 3.7, Citric acid 50 mM): 58.3 °C
- heat capacity change of unfolding (pH 3.7, Citric acid 50 mM): 1.65 kcal/mol/K
- unfolding enthalpy (calorimetric) (pH 3.7, Citric acid 50 mM): 98.1 kcal/mol
- unfolding enthalpy (van 't Hoff) (pH 3.7, Citric acid 50 mM): 105 kcal/mol
- Tm (pH 4.5, Citric acid 50 mM): 58.7 °C
- heat capacity change of unfolding (pH 4.5, Citric acid 50 mM): 1.58 kcal/mol/K
- unfolding enthalpy (calorimetric) (pH 4.5, Citric acid 50 mM): 96.6 kcal/mol
- unfolding enthalpy (van 't Hoff) (pH 4.5, Citric acid 50 mM): 101 kcal/mol
- Tm (pH 5, Citric acid 50 mM): 60.1 °C
- heat capacity change of unfolding (pH 5, Citric acid 50 mM): 0.91 kcal/mol/K
- unfolding enthalpy (calorimetric) (pH 5, Citric acid 50 mM): 101 kcal/mol
- unfolding enthalpy (van 't Hoff) (pH 5, Citric acid 50 mM): 105 kcal/mol
- Tm (pH 5.5, Citric acid 50 mM): 65.3 °C
- heat capacity change of unfolding (pH 5.5, Citric acid 50 mM): 1.26 kcal/mol/K
- unfolding enthalpy (calorimetric) (pH 5.5, Citric acid 50 mM): 109 kcal/mol
- unfolding enthalpy (van 't Hoff) (pH 5.5, Citric acid 50 mM): 123 kcal/mol
- Tm (pH 6, Citric acid 50 mM): 64.7 °C
- heat capacity change of unfolding (pH 6, Citric acid 50 mM): 1.92 kcal/mol/K and 1.88 kcal/mol/K
- unfolding enthalpy (calorimetric) (pH 6, Citric acid 50 mM): 114 kcal/mol
- unfolding enthalpy (van 't Hoff) (pH 6, Citric acid 50 mM): 122 kcal/mol
- Tm (pH 6.5, Citric acid 50 mM): 64.2 °C
- heat capacity change of unfolding (pH 6.5, Citric acid 50 mM): 1.33 kcal/mol/K
- unfolding enthalpy (calorimetric) (pH 6.5, Citric acid 50 mM): 115 kcal/mol
- unfolding enthalpy (van 't Hoff) (pH 6.5, Citric acid 50 mM): 124 kcal/mol
